Here are results for 3 molecules from patent US20110138496, “POLYPEPTIDE FOR IMPROVING TOLERANCE TO IRON DEFICIENCY IN PLANTS, AND USE THEREOF” (published 2011).

Data set [1] concerns the target T1, AK072874 B3-domain fragment, MBP fusion (Oryza sativa, UniProt Q7XKC5 Q7XKC5:151-433).
T1 sequence: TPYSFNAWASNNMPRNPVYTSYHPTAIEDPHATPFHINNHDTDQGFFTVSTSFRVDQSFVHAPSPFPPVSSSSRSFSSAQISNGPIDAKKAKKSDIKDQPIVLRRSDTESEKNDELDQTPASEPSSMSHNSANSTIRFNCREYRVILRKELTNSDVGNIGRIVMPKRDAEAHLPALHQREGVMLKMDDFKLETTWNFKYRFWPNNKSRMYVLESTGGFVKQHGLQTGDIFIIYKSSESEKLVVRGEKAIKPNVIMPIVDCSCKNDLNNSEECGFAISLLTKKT
Description: competition; 30-fold excess mutated IDE1 competitors; CATGC specifically recognized. The following applies: tags: MBP (pMAL-c2). The protocol: (§1) Next, the following operation was carried out for gel shift assay. First, partial ORFs containing a B3 DNA-binding domains of the respective candidate proteins were obtained by use of the following primers: a primer including the sequences shown in, respectively, SEQ ID NOS: 52 (forward) and 53 (reverse), for the 501st-726th amino acids of OsVP1; a primer including the sequences shown in, respectively, SEQ ID NOS: 54 (forward) and 55 (reverse), for the 141st-362nd amino acids of AK107456; a primer including the sequences shown in, respectively, SEQ ID NOS: 56 (forward) and 57 (reverse), for the 151st-433rd amino acids of AK072874; a primer including the sequences shown in, respectively, SEQ ID NOS: 58 (forward) and 59 (reverse), for the 1st-289th amino acids of AK109920; and a primer including the sequences shown in, respectively, SEQ ID NOS: 60 (forward) and 61 (reverse), for the 287th-672nd amino acids of AK101356. Then, each of the partial ORFs was inserted into pMAL-c2 (New England Biolabs) so as to be fused in frame to a maltose-binding protein (MBP) gene. By using a plasmid thus obtained, a fused protein of each of the candidate proteins and the MBP was produced in accordance with manufacturer's instructions. […]

Data set [2] deals with T2, IDEF1 (AK107456) B3-domain fragment, MBP fusion (Oryza sativa, UniProt Q6Z1Z3 SEQ:141-362).
T2 chain: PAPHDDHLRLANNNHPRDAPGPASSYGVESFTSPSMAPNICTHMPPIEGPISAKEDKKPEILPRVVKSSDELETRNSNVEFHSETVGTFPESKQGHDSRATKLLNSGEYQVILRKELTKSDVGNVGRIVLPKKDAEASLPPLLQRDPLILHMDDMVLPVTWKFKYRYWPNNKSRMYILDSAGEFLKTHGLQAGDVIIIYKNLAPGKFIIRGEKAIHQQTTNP
The description is as above. The following applies: tags: MBP (pMAL-c2). As for the experimental part: as §1

Data set [3] addresses T3, IDEF2 NAC domain, MBP fusion (Oryza sativa).
T3 chain: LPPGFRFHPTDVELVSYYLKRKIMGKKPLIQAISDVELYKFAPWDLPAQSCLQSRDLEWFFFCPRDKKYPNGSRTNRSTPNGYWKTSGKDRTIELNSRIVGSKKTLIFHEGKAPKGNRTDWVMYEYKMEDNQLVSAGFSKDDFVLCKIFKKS
Description: EMSA; 500 ng fusion protein; competition with 30- or 50-fold excess mutants shows CA[A/C]G(TTT) recognized. The settings on record: tags: MBP (pMAL-c2); label: labeled. The protocol:
Then, specific binding of IDEF2 to IDE2 was confirmed by the EMSA method. An IDEF2 NAC domain amplified by a primer including the base sequences shown in, respectively, SEQ ID NOS: 64 and 65, was cloned to a pMAL-c2 vector, and was used to produce an IDEF2-MBP fused protein. Then, a labeled […] including the base sequence (SEQ ID NO: 41) including IDE2 was incubated with 500 ng of the IDEF2-MBP fused protein.
Next, competition experiments were carried out by addition of 30-fold or 50-fold excess unlabeled competitors. FIG. 10 and (a) of FIG. 12 show mutations introduced into polynucleotide fragments, which were used as the competitors. The IDE2 probe was incubated with the 30-fold or 50-fold excess unlabeled competitors and 500 ng of the IDEF2-MBP fused protein. FIG. 10 and (b) of FIG. 12 show the result of the competition experiments. As shown in FIG. 10 and (b) of FIG. 12, IDEF2 predominantly recognized a CA[A/C]G(TTT) sequence (SEQ ID NO: 33 or 34) within IDE2.

Data set [4] concerns the target T4, OsVP1 B3-domain fragment, MBP fusion (Oryza sativa, UniProt P37398 P37398:501-726).
T4 sequence: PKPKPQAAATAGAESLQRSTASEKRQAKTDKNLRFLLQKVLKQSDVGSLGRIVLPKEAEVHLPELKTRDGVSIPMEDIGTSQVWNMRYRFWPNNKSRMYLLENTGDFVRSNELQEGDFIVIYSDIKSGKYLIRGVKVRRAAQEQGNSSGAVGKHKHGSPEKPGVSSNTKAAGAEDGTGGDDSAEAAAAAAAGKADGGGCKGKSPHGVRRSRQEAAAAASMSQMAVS
Nature of the data set: EMSA; no specific binding. The following applies: tags: MBP (pMAL-c2); label: labeled (EMSA probe). As for the experimental part: as §1

Data set [5] concerns the target T1, AK072874 B3-domain fragment, MBP fusion. Nature of the data set: EMSA; specific binding. The settings on record: tags: MBP (pMAL-c2); label: labeled (EMSA probe). The protocol: as §1
Data set [6] concerns the target T2, IDEF1 (AK107456) B3-domain fragment, …. Description: EMSA; specific binding. The settings on record: tags: MBP (pMAL-c2); label: labeled (EMSA probe). The protocol: as §1

B1: IDE1 (dsDNA)
DNA 1: ATCAAGCATGCTTCTTGC
DNA 2: GCAAGAAGCATGCTTGAT
For the molecule B1, the binding result in data set [1] and in data set [2] was “binds” each time.

B2: IDE2 EMSA probe (dsDNA)
DNA 1: GAGAGTGGGTTGAACGGCAAGTTTCACGCTGTCACTATCGTCCTCG
DNA 2: CGAGGACGATAGTGACAGCGTGAAACTTGCCGTTCAACCCACTCTC
Regarding B2, the binding result in data set [3] was “binds”.

B3: IDE2-IDE1x2 (tandemly duplicated IDE1 probe) (dsDNA)
DNA 1: AAGCTTGAATTCGATATCTTGAACGGCAAGTTTCACGCTGTCACTATCAAGCATGCTTCTTGCTTGAACGGCAAGTTTCACGCTGTCACTATCAAGCATGCTTCTTGCACGCGTCTCGAGTCGCGAATCG
DNA 2: CGATTCGCGACTCGAGACGCGTGCAAGAAGCATGCTTGATAGTGACAGCGTGAAACTTGCCGTTCAAGCAAGAAGCATGCTTGATAGTGACAGCGTGAAACTTGCCGTTCAAGATATCGAATTCAAGCTT
On to B3, for which the binding result is given as “no binding” in data set [4], “binds” in data set [5] and “binds” in data set [6].
